Measurements as given in patent US20140087995A1 (published 2014).
Numbered stars: 1 amine (or outer) side, 2 acyl side, 3 side chain; on linkers, the order of the positions; unused ones are H or OH. Bridge positions count the residues as written; N and C are the ends. Side chains are listed from the residue outwards. Ends that are not written are not given here. * marks the point of attachment. C20 diacid = O=C(O)CCCCCCCCCCCCCCCCCCC(=O)*; γGlu = O=C(O)[C@H](CCC(=O)[*:2])N[*:1]; AEEA = NCCOCCOCC(=O)O

T1: rat calcitonin receptor (rat, UniProt P32214 25-516)
T1 construct: whole, on cells; Used as membranes prepared from BHK tk'ts 13 cells transiently transfected with the rat calcitonin receptor (Assay VIII); also called rCTR; rat calcitonin (a) receptor
T1 sequence (looked up): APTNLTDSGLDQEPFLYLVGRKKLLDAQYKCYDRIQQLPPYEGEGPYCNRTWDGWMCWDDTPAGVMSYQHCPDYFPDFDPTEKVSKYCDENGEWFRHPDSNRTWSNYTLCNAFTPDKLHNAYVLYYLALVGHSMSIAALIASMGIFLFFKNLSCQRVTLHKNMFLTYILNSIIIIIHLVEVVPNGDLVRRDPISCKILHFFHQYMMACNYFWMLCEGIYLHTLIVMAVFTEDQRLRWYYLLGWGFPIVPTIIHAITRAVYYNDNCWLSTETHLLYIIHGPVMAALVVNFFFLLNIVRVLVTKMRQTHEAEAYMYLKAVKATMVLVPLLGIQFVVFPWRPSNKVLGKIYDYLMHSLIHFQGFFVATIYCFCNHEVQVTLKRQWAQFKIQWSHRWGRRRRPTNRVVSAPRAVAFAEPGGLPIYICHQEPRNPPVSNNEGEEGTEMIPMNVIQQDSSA

T2: human calcitonin receptor (human, UniProt P30988 25-474)
T2 construct: whole, on cells; Used as membranes prepared from a BHK tk'ts 13 cell line stably transfected with the human calcitonin receptor (Assay VII); also called hCTR; hCT
T2 sequence (looked up): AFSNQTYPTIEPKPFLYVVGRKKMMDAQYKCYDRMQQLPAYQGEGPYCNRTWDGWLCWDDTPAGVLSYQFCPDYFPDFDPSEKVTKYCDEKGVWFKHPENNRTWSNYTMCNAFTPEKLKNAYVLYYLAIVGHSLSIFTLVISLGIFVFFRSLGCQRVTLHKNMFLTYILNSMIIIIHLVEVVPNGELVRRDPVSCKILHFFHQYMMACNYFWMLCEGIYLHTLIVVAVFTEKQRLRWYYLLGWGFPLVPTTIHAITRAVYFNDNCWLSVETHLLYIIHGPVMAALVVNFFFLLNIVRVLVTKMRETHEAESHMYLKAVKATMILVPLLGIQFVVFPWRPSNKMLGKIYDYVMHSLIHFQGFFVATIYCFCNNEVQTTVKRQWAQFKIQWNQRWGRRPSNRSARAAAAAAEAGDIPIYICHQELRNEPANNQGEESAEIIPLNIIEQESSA

T3: rat amylin receptor (rat calcitonin receptor + rat RAMP 3) (rat, UniProt P32214 25-516; Q9JJ73 23-147)
T3 construct: whole, on cells; Used as membranes prepared from BHK tk'ts 13 cells transiently transfected with rat calcitonin receptor and rat RAMP 3 (Assay VI); also called rAmylin-R; rat amylin 3(a) receptor
T3 sequence (looked up) 1: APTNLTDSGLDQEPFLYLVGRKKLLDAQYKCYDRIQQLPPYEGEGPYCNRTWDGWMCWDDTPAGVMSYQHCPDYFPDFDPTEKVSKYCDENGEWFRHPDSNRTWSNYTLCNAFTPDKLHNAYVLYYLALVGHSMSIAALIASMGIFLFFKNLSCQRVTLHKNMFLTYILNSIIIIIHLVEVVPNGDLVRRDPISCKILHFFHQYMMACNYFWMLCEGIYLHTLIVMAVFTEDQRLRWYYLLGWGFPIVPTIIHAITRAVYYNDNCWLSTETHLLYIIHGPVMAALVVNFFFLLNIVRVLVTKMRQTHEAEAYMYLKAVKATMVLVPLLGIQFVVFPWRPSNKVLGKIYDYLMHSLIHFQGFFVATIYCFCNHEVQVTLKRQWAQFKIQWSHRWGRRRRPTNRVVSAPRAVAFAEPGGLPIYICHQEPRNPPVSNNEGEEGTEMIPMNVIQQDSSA
T3 sequence (looked up) 2: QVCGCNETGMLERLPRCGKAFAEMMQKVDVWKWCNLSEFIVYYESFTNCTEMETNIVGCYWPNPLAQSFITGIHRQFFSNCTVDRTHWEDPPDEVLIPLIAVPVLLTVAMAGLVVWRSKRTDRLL


Legend:
[1] = target: T1, rat calcitonin receptor; assay: IC50 on rat CTR divided by IC50 on rat amylin receptor (Assays VIII/VI)
[2] = target: T2, human calcitonin receptor; assay: IC50 on human CTR divided by IC50 on human amylin receptor (Assays VII/V)
Procedure: The resulting pellet was resuspended, homogenized and centrifuged (20.000 rpm, 15 min) in a buffer containing 20 mM Na-HEPES and 0.1 mM EDTA (pH 7.4, buffer 2). The resulting pellet was resuspended in buffer 2 and protein concentration was measured (BCA protein Assay, Pierce). The homogenate was kept cold during the whole procedure. The membranes were kept at −80° C. until use. The assay was performed in a 384 well Optiplate (PerkinElmer) in a total volume of 40 ul. Membranes were mixed with SPA beads. Final concentration of membranes 35 ng/μL final and SPA beads was 0.05 mg/well. Test-compounds were dissolved in DMSO and further diluted in assay buffer (50 mM Hepes, pH 7.4, 1 mM CaCl2, 5 mM MgCl₂, 0.1% OA and 0.02% Tween20). […] The final mixture was incubated with shaking at 400 rpm for 120 min at 25° C. prior to centrifugation (1500 rpm, 10 min). Samples were analyzed on TopCounter™ (Packard). The IC₅₀ was calculated using (one site binding competition analysis) GraphPad Prism5 as a measure of receptor affinity.
Membranes were prepared in the following way; the cells were rinsed with PBS and incubated with Versene for approximately 5 min before harvesting. The cells were flushed with PBS and the cell-suspension was centrifuged for 5 min at 1000 rpm. Cells were homogenized (Ultrathurrax) in a buffer containing 20 mM Na-HEPES and 10 mM EDTA (pH 7.4) and centrifuged at 20.000 rpm for 15 min. The resulting pellet was resuspended, homogenized and centrifuged (20.000 rpm, 15 min) in a buffer containing 20 mM Na-HEPES and 0.1 mM EDTA (pH 7.4, buffer 2). The resulting pellet was resuspended in buffer 2 and protein concentration was measured (BCA protein Assay, Pierce). The homogenate was kept cold during the whole procedure. The membranes were kept at −80° C. until use. Assay was performed in a 384 well Optiplate (PerkinElmer) in a total volume of 40 ul. Membranes were mixed with SPA beads.

[3] = target: T1, rat calcitonin receptor; assay: SPA competition with 125I-calcitonin, membranes of BHK cells with rat CTR (Assay VIII)
[4] = target: T3, rat amylin receptor (rat calcitonin …); assay: SPA competition with 125I-rat amylin, membranes of BHK cells with rat CTR + rat RAMP3 (Assay VI)
Procedure: The binding assay was performed using scintillation proximity assay (SPA) beads (RPNQ0001) from PerkinElmer and cell membranes from the Amylin 3(a)/CRE-luc cells (as described in Assay (II)) were used. Membranes were prepared in the following way; the cells were rinsed with PBS and incubated with Versene for approximately 5 min before harvesting. The cells were flushed with PBS and the cell-suspension was centrifuged for 5 min at 1000 rpm. Cells were homogenized (ultrathurrax) in a buffer containing 20 mM Na-HEPES and 10 mM EDTA (pH 7.4) and centrifuged at 20.000 rpm for 15 min. The resulting pellet was resuspended, homogenized and centrifuged (20.000 rpm, 15 min) in a buffer containing 20 mM Na-HEPES and 0.1 mM EDTA (pH 7.4, buffer 2). The resulting pellet was resuspended in buffer 2 and protein concentration was measured (BCA protein Assay, Pierce). The homogenate was kept cold during the whole procedure. The membranes were kept at −80° C. until use. The assay was performed in a 384 well Optiplate (PerkinElmer) in a total volume of 40 ul. Membranes were mixed with SPA beads. Final concentration of membranes 35 ng/μL final and SPA beads was 0.05 mg/well. Test-compounds were dissolved in DMSO and further diluted in assay buffer (50 mM Hepes, pH 7.4, 1 mM CaCl2, 5 mM MgCl₂, 0.1% OA and 0.02% Tween20). […] The final mixture was incubated with shaking at 400 rpm for 120 min at 25° C. prior to centrifugation (1500 rpm, 10 min). Samples were analyzed on TopCounter™ (Packard). The IC₅₀ was calculated using (one site binding competition analysis) GraphPad Prism5 as a measure of receptor affinity.
Cells were grown in DMEM with 10% FBS and 1% Pen/Strep. Approximately 48 hours after transfection, the cells were harvested and membranes were prepared.

Row | Ratio rCT/rAmylin binding [1] | Ratio hCT/hAmylin binding [2] | IC50 [3] [nM] | IC50 [4] [nM] | Binder
1 | 259 | 247 | 221 | 0.851 | K([AEEA-γGlu-C20 diacid])CNTATCATQRLAAFLRHSSPNFGAIPSSTPVGSNTY-NH2 (disulfide 2-7; N-terminus assumed; SMILES CC[C@H](C)[C@H](NC(=O)[C@H](C)NC(=O)CNC(=O)[C@H](Cc1ccccc1)NC(=O)[C@H](CC(N)=O)NC(=O)[C@@H]1CCCN1C(=O)[C@H](CO)NC(=O)[C@H](CO)NC(=O)[C@H](Cc1c[nH]cn1)NC(=O)[C@H](CCCNC(=N)N)NC(=O)[C@H](CC(C)C)NC(=O)[C@H](Cc1ccccc1)NC(=O)[C@H](C)NC(=O)[C@H](C)NC(=O)[C@H](CC(C)C)NC(=O)[C@H](CCCNC(=N)N)NC(=O)[C@H](CCC(N)=O)NC(=O)[C@@H](NC(=O)[C@H](C)NC(=O)[C@@H]1CSSC[C@H](NC(=O)[C@@H](N)CCCCNC(=O)COCCOCCNC(=O)CC[C@H](NC(=O)CCCCCCCCCCCCCCCCCCC(=O)O)C(=O)O)C(=O)N[C@@H](CC(N)=O)C(=O)N[C@@H]([C@@H](C)O)C(=O)N[C@@H](C)C(=O)N[C@@H]([C@@H](C)O)C(=O)N1)[C@@H](C)O)C(=O)N1CCC[C@H]1C(=O)N[C@@H](CO)C(=O)N[C@@H](CO)C(=O)N[C@H](C(=O)N1CCC[C@H]1C(=O)N[C@H](C(=O)NCC(=O)N[C@@H](CO)C(=O)N[C@@H](CC(N)=O)C(=O)N[C@H](C(=O)N[C@@H](Cc1ccc(O)cc1)C(N)=O)[C@@H](C)O)C(C)C)[C@@H](C)O, Analogue of human amylin; also called compound 72)
2 | 87 | 140 | 143 | 1.64 | K([AEEA-γGlu-C20 diacid])CNTATCATQRLARFLRHSSPNFGAIPSSTNVGSNTY-NH2 (disulfide 2-7; N-terminus assumed; SMILES CC[C@H](C)[C@H](NC(=O)[C@H](C)NC(=O)CNC(=O)[C@H](Cc1ccccc1)NC(=O)[C@H](CC(N)=O)NC(=O)[C@@H]1CCCN1C(=O)[C@H](CO)NC(=O)[C@H](CO)NC(=O)[C@H](Cc1c[nH]cn1)NC(=O)[C@H](CCCNC(=N)N)NC(=O)[C@H](CC(C)C)NC(=O)[C@H](Cc1ccccc1)NC(=O)[C@H](CCCNC(=N)N)NC(=O)[C@H](C)NC(=O)[C@H](CC(C)C)NC(=O)[C@H](CCCNC(=N)N)NC(=O)[C@H](CCC(N)=O)NC(=O)[C@@H](NC(=O)[C@H](C)NC(=O)[C@@H]1CSSC[C@H](NC(=O)[C@@H](N)CCCCNC(=O)COCCOCCNC(=O)CC[C@H](NC(=O)CCCCCCCCCCCCCCCCCCC(=O)O)C(=O)O)C(=O)N[C@@H](CC(N)=O)C(=O)N[C@@H]([C@@H](C)O)C(=O)N[C@@H](C)C(=O)N[C@@H]([C@@H](C)O)C(=O)N1)[C@@H](C)O)C(=O)N1CCC[C@H]1C(=O)N[C@@H](CO)C(=O)N[C@@H](CO)C(=O)N[C@H](C(=O)N[C@@H](CC(N)=O)C(=O)N[C@H](C(=O)NCC(=O)N[C@@H](CO)C(=O)N[C@@H](CC(N)=O)C(=O)N[C@H](C(=O)N[C@@H](Cc1ccc(O)cc1)C(N)=O)[C@@H](C)O)C(C)C)[C@@H](C)O, Analogue of human amylin; also called compound 82)
3 | 64.7 | 126 | 128 | 1.97 | K([AEEA-γGlu-C20 diacid])CNTATCATQRLARFLRHSSPNFGAIPSSTPVGSNTY-NH2 (disulfide 2-7; N-terminus assumed; SMILES CC[C@H](C)[C@H](NC(=O)[C@H](C)NC(=O)CNC(=O)[C@H](Cc1ccccc1)NC(=O)[C@H](CC(N)=O)NC(=O)[C@@H]1CCCN1C(=O)[C@H](CO)NC(=O)[C@H](CO)NC(=O)[C@H](Cc1c[nH]cn1)NC(=O)[C@H](CCCNC(=N)N)NC(=O)[C@H](CC(C)C)NC(=O)[C@H](Cc1ccccc1)NC(=O)[C@H](CCCNC(=N)N)NC(=O)[C@H](C)NC(=O)[C@H](CC(C)C)NC(=O)[C@H](CCCNC(=N)N)NC(=O)[C@H](CCC(N)=O)NC(=O)[C@@H](NC(=O)[C@H](C)NC(=O)[C@@H]1CSSC[C@H](NC(=O)[C@@H](N)CCCCNC(=O)COCCOCCNC(=O)CC[C@H](NC(=O)CCCCCCCCCCCCCCCCCCC(=O)O)C(=O)O)C(=O)N[C@@H](CC(N)=O)C(=O)N[C@@H]([C@@H](C)O)C(=O)N[C@@H](C)C(=O)N[C@@H]([C@@H](C)O)C(=O)N1)[C@@H](C)O)C(=O)N1CCC[C@H]1C(=O)N[C@@H](CO)C(=O)N[C@@H](CO)C(=O)N[C@H](C(=O)N1CCC[C@H]1C(=O)N[C@H](C(=O)NCC(=O)N[C@@H](CO)C(=O)N[C@@H](CC(N)=O)C(=O)N[C@H](C(=O)N[C@@H](Cc1ccc(O)cc1)C(N)=O)[C@@H](C)O)C(C)C)[C@@H](C)O, Analogue of human amylin; also called compound 64)
